{"source": "paper PMC12148503", "about": "“Molecular Basis of Interchain Disulfide Bond Formation in BMP-9 and BMP-10” (Journal of molecular biology, 2025)", "parents": {"B1": {"name": "Pro-(X)-BMP-9 [human] / itself (parent)", "chain": "KPLQSWGRGSAGGNAHSPLGVPGGGLPEHTFNLKMFLENVKVDFLRSLNLSGVPSQDKTRVEPPQYMIDLYNRYTSDKSTTPASNIVRSFSMEDAISITATEDFPFQKHILLFNISIPRHEQITRAELRLYVSCQNHVDPSHDLKGSVVIYDVLDGTDAWDSATETKTFLVSQDIQDEGWETLEVSSAVKRWVRSDSTKSKNKLEVTVESHRKGCDTLDISVPPGSRNLPFFVVFSNDHSSGTKETRLELREMISHEQESVLKKLSKDGSTEAGESSHEEDTDGHVAAGSTLAIEGRSSGAGSHCQKTSLRVNFEDIGWDSWIIAPKEYEAYECKGGCFFPLADDVTPTKHAIVQTLVHLKFPTKVGKACCVPTKLSPISVLYKDDMGVPTLKYHYEGMSVAECGCR"}}, "data": [{"variants_of": "B1", "assay": "SDS-PAGE densitometry", "settings": "with itself; IMAC column purified Pro-BMP-9", "values": [{"variant": "KPLQSWGRGSAGGNAHSPLGVPGGGLPEHTFNLKMFLENVKVDFLRSLNLSGVPSQDKTRVEPPQYMIDLYNRYTSDKSTTPASNIVRSFSMEDAISITATEDFPFQKHILLFNISIPRHEQITRAELRLYVSCQNHVDPSHDLKGSVVIYDVLDGTDAWDSATETKTFLVSQDIQDEGWETLEVSSAVKRWVRSDSTKSKNKLEVTVESHRKGCDTLDISVPPGSRNLPFFVVFSNDHSSGTKETRLELREMISHEQESVLKKLSKDGSTEAGESSHEEDTDGHVAAGSTLAIEGRSSGAGSHCQKTSLRVNFEDIGWDSWIIAPKEYEAYECKGGCFFPLADDVTPTKHAIVQTLVHLKFPTKVSKACCVPTKLSPISVLYKDDMGVPTLKYHYEGMSVAECGCR", "note": "[chain 1 G367S]", "screen value": 1.29}, {"variant": "KPLQSWGRGSAGGNAHSPLGVPGGGLPEHTFNLKMFLENVKVDFLRSLNLSGVPSQDKTRVEPPQYMIDLYNRYTSDKSTTPASNIVRSFSMEDAISITATEDFPFQKHILLFNISIPRHEQITRAELRLYVSCQNHVDPSHDLKGSVVIYDVLDGTDAWDSATETKTFLVSQDIQDEGWETLEVSSAVKRWVRSDSTKSKNKLEVTVESHRKGCDTLDISVPPGSRNLPFFVVFSNDHSSGTKETRLELREMISHEQESVLKKLSKDGSTEAGESSHEEDTDGHVAAGSTLAIEGRSSGAGSHCQKTSLRVNFEDIGWDSWIIAPKEYEAYECRGGCFFPLADDVTPTKHAIVQTLVHLKFPTKVGKACCVPTKLSPISVLYKDDMGVPTLKYHYEGMSVAECGCR", "note": "[chain 1 K335R]", "screen value": 0.7}, {"variant": "KPLQSWGRGSAGGNAHSPLGVPGGGLPEHTFNLKMFLENVKVDFLRSLNLSGVPSQDKTRVEPPQYMIDLYNRYTSDKSTTPASNIVRSFSMEDAISITATEDFPFQKHILLFNISIPRHEQITRAELRLYVSCQNHVDPSHDLKGSVVIYDVLDGTDAWDSATETKTFLVSQDIQDEGWETLEVSSAVKRWVRSDSTKSKNKLEVTVESHRKGCDTLDISVPPGSRNLPFFVVFSNDHSSGTKETRLELREMISHEQESVLKKLSKDGSTEAGESSHEEDTDGHVAAGSTLAIEGRSSGAGSHCQKTSLRVNFEDIGWDSWIIAPKEYEAYECRGGCFFPLADDVTPTKHAIVQTLVHLKFPTKVSKACCVPTKLSPISVLYKDDMGVPTLKYHYEGMSVAECGCR", "note": "[chain 1 K335R G367S]", "screen value": 3.24}]}]}
